B1: Pistol ribozyme (parent)
chain: GGGUCGUUGUUCCAUAAUCGCGUGGAUAUGGCACGCAAGUUUCUACCGGGCACCGUAAAUGUCCGACUGGAGCCGUUCGGGCGGCUAUAAACAGACCUCAGGCCCGAAGCGUGGCGGCACCUGCCGCCGGUGGUAAAAAAGAUCGGAAGAGCACACGUCU

Variants of: B1
Assay: aptazyme ON/OFF ratio, guanine; higher = stronger switching; co-transcriptional cleavage with and without guanine

| Variant | aptazyme ON/OFF ratio |
| --- | --- |
| GGGUCGCUAUGUAAUAAUCGCGUGGAUAUGGCACGCAAGUUUCUACCGGGCACCGUAAAUGUCCGACUGGAGCCGUUCGGGCGGCUAUAAACAGACCUCAGGCCCGAAGCGUGGCGGCACCUGCCGCCGGUGGUAAAAAAGAUCGGAAGAGCACACGUCU [U7C G9A U11G C12U C13A] | 1.35 |
| GGGUCGCUAUGUGAUAAUCGCGUGGAUAUGGCACGCAAGUUUCUACCGGGCACCGUAAAUGUCCGACUGGAGCCGUUCGGGCGGCUAUAAACAGACCUCAGGCCCGAAGCGUGGCGGCACCUGCCGCCGGUGGUAAAAAAGAUCGGAAGAGCACACGUCU [U7C G9A U11G C12U C13G] | 1.23 |
| GGGUCGCUAUGUUAUAAUCGCGUGGAUAUGGCACGCAAGUUUCUACCGGGCACCGUAAAUGUCCGACUGGAGCCGUUCGGGCGGCUAUAAACAGACCUCAGGCCCGAAGCGUGGCGGCACCUGCCGCCGGUGGUAAAAAAGAUCGGAAGAGCACACGUCU [U7C G9A U11G C12U C13U] | 1.45 |
| GGGUCGCUCUUGGAUAAUCGCGUGGAUAUGGCACGCAAGUUUCUACCGGGCACCGUAAAUGUCCGACUGGAGCCGUUCGGGCGGCUAUAAACAGACCUCAGGCCCGAAGCGUGGCGGCACCUGCCGCCGGUGGUAAAAAAGAUCGGAAGAGCACACGUCU [U7C G9C C12G C13G] | 1.05 |
| GGGUCGCUCUUGAAUAAUCGCGUGGAUAUGGCACGCAAGUUUCUACCGGGCACCGUAAAUGUCCGACUGGAGCCGUUCGGGCGGCUAUAAACAGACCUCAGGCCCGAAGCGUGGCGGCACCUGCCGCCGGUGGUAAAAAAGAUCGGAAGAGCACACGUCU [U7C G9C C12G C13A] | 1.04 |
| GGGUCGCUCUUGUAUAAUCGCGUGGAUAUGGCACGCAAGUUUCUACCGGGCACCGUAAAUGUCCGACUGGAGCCGUUCGGGCGGCUAUAAACAGACCUCAGGCCCGAAGCGUGGCGGCACCUGCCGCCGGUGGUAAAAAAGAUCGGAAGAGCACACGUCU [U7C G9C C12G C13U] | 1.05 |
| GGGUCGCUCUUCCAUAAUCGCGUGGAUAUGGCACGCAAGUUUCUACCGGGCACCGUAAAUGUCCGACUGGAGCCGUUCGGGCGGCUAUAAACAGACCUCAGGCCCGAAGCGUGGCGGCACCUGCCGCCGGUGGUAAAAAAGAUCGGAAGAGCACACGUCU [U7C G9C] | 1.03 |
| GGGUCGCUCAUAAAUAAUCGCGUGGAUAUGGCACGCAAGUUUCUACCGGGCACCGUAAAUGUCCGACUGGAGCCGUUCGGGCGGCUAUAAACAGACCUCAGGCCCGAAGCGUGGCGGCACCUGCCGCCGGUGGUAAAAAAGAUCGGAAGAGCACACGUCU [U7C G9C U10A C12A C13A] | 1.09 |
| GGGUCGCUCAUAGAUAAUCGCGUGGAUAUGGCACGCAAGUUUCUACCGGGCACCGUAAAUGUCCGACUGGAGCCGUUCGGGCGGCUAUAAACAGACCUCAGGCCCGAAGCGUGGCGGCACCUGCCGCCGGUGGUAAAAAAGAUCGGAAGAGCACACGUCU [U7C G9C U10A C12A C13G] | 1.09 |
| GGGUCGCUCAUAUAUAAUCGCGUGGAUAUGGCACGCAAGUUUCUACCGGGCACCGUAAAUGUCCGACUGGAGCCGUUCGGGCGGCUAUAAACAGACCUCAGGCCCGAAGCGUGGCGGCACCUGCCGCCGGUGGUAAAAAAGAUCGGAAGAGCACACGUCU [U7C G9C U10A C12A C13U] | 1.09 |
| GGGUCGCUAUGCAAUAAUCGCGUGGAUAUGGCACGCAAGUUUCUACCGGGCACCGUAAAUGUCCGACUGGAGCCGUUCGGGCGGCUAUAAACAGACCUCAGGCCCGAAGCGUGGCGGCACCUGCCGCCGGUGGUAAAAAAGAUCGGAAGAGCACACGUCU [U7C G9A U11G C13A] | 1.46 |
| GGGUCGCUAUGCUAUAAUCGCGUGGAUAUGGCACGCAAGUUUCUACCGGGCACCGUAAAUGUCCGACUGGAGCCGUUCGGGCGGCUAUAAACAGACCUCAGGCCCGAAGCGUGGCGGCACCUGCCGCCGGUGGUAAAAAAGAUCGGAAGAGCACACGUCU [U7C G9A U11G C13U] | 1.11 |
| GGGUCGCUAUGCGAUAAUCGCGUGGAUAUGGCACGCAAGUUUCUACCGGGCACCGUAAAUGUCCGACUGGAGCCGUUCGGGCGGCUAUAAACAGACCUCAGGCCCGAAGCGUGGCGGCACCUGCCGCCGGUGGUAAAAAAGAUCGGAAGAGCACACGUCU [U7C G9A U11G C13G] | 1.07 |
| GGGUCGCUAUGGUAUAAUCGCGUGGAUAUGGCACGCAAGUUUCUACCGGGCACCGUAAAUGUCCGACUGGAGCCGUUCGGGCGGCUAUAAACAGACCUCAGGCCCGAAGCGUGGCGGCACCUGCCGCCGGUGGUAAAAAAGAUCGGAAGAGCACACGUCU [U7C G9A U11G C12G C13U] | 1.09 |
| GGGUCGCUAUGGAAUAAUCGCGUGGAUAUGGCACGCAAGUUUCUACCGGGCACCGUAAAUGUCCGACUGGAGCCGUUCGGGCGGCUAUAAACAGACCUCAGGCCCGAAGCGUGGCGGCACCUGCCGCCGGUGGUAAAAAAGAUCGGAAGAGCACACGUCU [U7C G9A U11G C12G C13A] | 1.19 |
| GGGUCGCUAUGGGAUAAUCGCGUGGAUAUGGCACGCAAGUUUCUACCGGGCACCGUAAAUGUCCGACUGGAGCCGUUCGGGCGGCUAUAAACAGACCUCAGGCCCGAAGCGUGGCGGCACCUGCCGCCGGUGGUAAAAAAGAUCGGAAGAGCACACGUCU [U7C G9A U11G C12G C13G] | 1.21 |
| GGGUCGCUCUUCAAUAAUCGCGUGGAUAUGGCACGCAAGUUUCUACCGGGCACCGUAAAUGUCCGACUGGAGCCGUUCGGGCGGCUAUAAACAGACCUCAGGCCCGAAGCGUGGCGGCACCUGCCGCCGGUGGUAAAAAAGAUCGGAAGAGCACACGUCU [U7C G9C C13A] | 1.03 |
| GGGUCGCUCUUCUAUAAUCGCGUGGAUAUGGCACGCAAGUUUCUACCGGGCACCGUAAAUGUCCGACUGGAGCCGUUCGGGCGGCUAUAAACAGACCUCAGGCCCGAAGCGUGGCGGCACCUGCCGCCGGUGGUAAAAAAGAUCGGAAGAGCACACGUCU [U7C G9C C13U] | 1.01 |

| Variant | aptazyme ON/OFF ratio |
| --- | --- |
| GGGUCGCUCUUCGAUAAUCGCGUGGAUAUGGCACGCAAGUUUCUACCGGGCACCGUAAAUGUCCGACUGGAGCCGUUCGGGCGGCUAUAAACAGACCUCAGGCCCGAAGCGUGGCGGCACCUGCCGCCGGUGGUAAAAAAGAUCGGAAGAGCACACGUCU [U7C G9C C13G] | 1.05 |
| GGGUCGCUCUUACAUAAUCGCGUGGAUAUGGCACGCAAGUUUCUACCGGGCACCGUAAAUGUCCGACUGGAGCCGUUCGGGCGGCUAUAAACAGACCUCAGGCCCGAAGCGUGGCGGCACCUGCCGCCGGUGGUAAAAAAGAUCGGAAGAGCACACGUCU [U7C G9C C12A] | 1.03 |
| GGGUCGCUCUUUCAUAAUCGCGUGGAUAUGGCACGCAAGUUUCUACCGGGCACCGUAAAUGUCCGACUGGAGCCGUUCGGGCGGCUAUAAACAGACCUCAGGCCCGAAGCGUGGCGGCACCUGCCGCCGGUGGUAAAAAAGAUCGGAAGAGCACACGUCU [U7C G9C C12U] | 1.03 |
| GGGUCGCUCUUGCAUAAUCGCGUGGAUAUGGCACGCAAGUUUCUACCGGGCACCGUAAAUGUCCGACUGGAGCCGUUCGGGCGGCUAUAAACAGACCUCAGGCCCGAAGCGUGGCGGCACCUGCCGCCGGUGGUAAAAAAGAUCGGAAGAGCACACGUCU [U7C G9C C12G] | 1.04 |
| GGGUCGCUAUGAUAUAAUCGCGUGGAUAUGGCACGCAAGUUUCUACCGGGCACCGUAAAUGUCCGACUGGAGCCGUUCGGGCGGCUAUAAACAGACCUCAGGCCCGAAGCGUGGCGGCACCUGCCGCCGGUGGUAAAAAAGAUCGGAAGAGCACACGUCU [U7C G9A U11G C12A C13U] | 1.14 |
| GGGUCGCUAUGAGAUAAUCGCGUGGAUAUGGCACGCAAGUUUCUACCGGGCACCGUAAAUGUCCGACUGGAGCCGUUCGGGCGGCUAUAAACAGACCUCAGGCCCGAAGCGUGGCGGCACCUGCCGCCGGUGGUAAAAAAGAUCGGAAGAGCACACGUCU [U7C G9A U11G C12A C13G] | 1.25 |
| GGGUCGCUCUUUUAUAAUCGCGUGGAUAUGGCACGCAAGUUUCUACCGGGCACCGUAAAUGUCCGACUGGAGCCGUUCGGGCGGCUAUAAACAGACCUCAGGCCCGAAGCGUGGCGGCACCUGCCGCCGGUGGUAAAAAAGAUCGGAAGAGCACACGUCU [U7C G9C C12U C13U] | 1.02 |
| GGGUCGCUCUUUGAUAAUCGCGUGGAUAUGGCACGCAAGUUUCUACCGGGCACCGUAAAUGUCCGACUGGAGCCGUUCGGGCGGCUAUAAACAGACCUCAGGCCCGAAGCGUGGCGGCACCUGCCGCCGGUGGUAAAAAAGAUCGGAAGAGCACACGUCU [U7C G9C C12U C13G] | 1.04 |
| GGGUCGCUCUUUAAUAAUCGCGUGGAUAUGGCACGCAAGUUUCUACCGGGCACCGUAAAUGUCCGACUGGAGCCGUUCGGGCGGCUAUAAACAGACCUCAGGCCCGAAGCGUGGCGGCACCUGCCGCCGGUGGUAAAAAAGAUCGGAAGAGCACACGUCU [U7C G9C C12U C13A] | 1.01 |
| GGGUCGCUCAUGAAUAAUCGCGUGGAUAUGGCACGCAAGUUUCUACCGGGCACCGUAAAUGUCCGACUGGAGCCGUUCGGGCGGCUAUAAACAGACCUCAGGCCCGAAGCGUGGCGGCACCUGCCGCCGGUGGUAAAAAAGAUCGGAAGAGCACACGUCU [U7C G9C U10A C12G C13A] | 1.07 |
| GGGUCGCUCAUACAUAAUCGCGUGGAUAUGGCACGCAAGUUUCUACCGGGCACCGUAAAUGUCCGACUGGAGCCGUUCGGGCGGCUAUAAACAGACCUCAGGCCCGAAGCGUGGCGGCACCUGCCGCCGGUGGUAAAAAAGAUCGGAAGAGCACACGUCU [U7C G9C U10A C12A] | 1.04 |
| GGGUCGCUCAUGCAUAAUCGCGUGGAUAUGGCACGCAAGUUUCUACCGGGCACCGUAAAUGUCCGACUGGAGCCGUUCGGGCGGCUAUAAACAGACCUCAGGCCCGAAGCGUGGCGGCACCUGCCGCCGGUGGUAAAAAAGAUCGGAAGAGCACACGUCU [U7C G9C U10A C12G] | 1.09 |
| GGGUCGCUAUGUCAUAAUCGCGUGGAUAUGGCACGCAAGUUUCUACCGGGCACCGUAAAUGUCCGACUGGAGCCGUUCGGGCGGCUAUAAACAGACCUCAGGCCCGAAGCGUGGCGGCACCUGCCGCCGGUGGUAAAAAAGAUCGGAAGAGCACACGUCU [U7C G9A U11G C12U] | 1.27 |
| GGGUCGCUAUGGCAUAAUCGCGUGGAUAUGGCACGCAAGUUUCUACCGGGCACCGUAAAUGUCCGACUGGAGCCGUUCGGGCGGCUAUAAACAGACCUCAGGCCCGAAGCGUGGCGGCACCUGCCGCCGGUGGUAAAAAAGAUCGGAAGAGCACACGUCU [U7C G9A U11G C12G] | 1.37 |
| GGGUCGCUCAUCCAUAAUCGCGUGGAUAUGGCACGCAAGUUUCUACCGGGCACCGUAAAUGUCCGACUGGAGCCGUUCGGGCGGCUAUAAACAGACCUCAGGCCCGAAGCGUGGCGGCACCUGCCGCCGGUGGUAAAAAAGAUCGGAAGAGCACACGUCU [U7C G9C U10A] | 1.06 |
| GGGUCGCUCUUAAAUAAUCGCGUGGAUAUGGCACGCAAGUUUCUACCGGGCACCGUAAAUGUCCGACUGGAGCCGUUCGGGCGGCUAUAAACAGACCUCAGGCCCGAAGCGUGGCGGCACCUGCCGCCGGUGGUAAAAAAGAUCGGAAGAGCACACGUCU [U7C G9C C12A C13A] | 1.05 |
| GGGUCGCUCUUAGAUAAUCGCGUGGAUAUGGCACGCAAGUUUCUACCGGGCACCGUAAAUGUCCGACUGGAGCCGUUCGGGCGGCUAUAAACAGACCUCAGGCCCGAAGCGUGGCGGCACCUGCCGCCGGUGGUAAAAAAGAUCGGAAGAGCACACGUCU [U7C G9C C12A C13G] | 1.07 |
| GGGUCGCUCUUAUAUAAUCGCGUGGAUAUGGCACGCAAGUUUCUACCGGGCACCGUAAAUGUCCGACUGGAGCCGUUCGGGCGGCUAUAAACAGACCUCAGGCCCGAAGCGUGGCGGCACCUGCCGCCGGUGGUAAAAAAGAUCGGAAGAGCACACGUCU [U7C G9C C12A C13U] | 1.02 |
